Measurements published in paper PMC3664923, “Structures of CD200/CD200 Receptor Family and Implications for Topology, Regulation, and Evolution” (Structure(London, England:1993), 2013).
Several values for one entry are separate records, joined by “and”; a condition that tells them apart may be missing. Identical values can stand only once. Like-named read-outs stand apart in the source and are kept apart here.

What was measured:
[1] = biological target: mouse CD200 (residues 1-232) CD4-Bio, mutant Q27K (mouse) (UniProt O54901); assay: SPR; BIAcore 3000, 25°C, HBS; wild-type and mutant CD200 CD4-Bio and CD4 control (about 650 RU each) held by OX68 mAb amine coupled to a CM5 chip; serial dilutions of soluble CD200R injected (KD from equilibrium binding), mutants tested with CD200R at 0.5 μM and given as percent of wild type
[2] = biological target: mouse CD200 extracellular region (residues 1-232) tagged with rat CD4 domains 3 and 4 and a biotinylation site, wild type (mouse) (UniProt O54901); assay: as above
[3] = biological target: CD200R (Mus musculus) (UniProt Q9ES57); conditions: cited from earlier work
[4] = biological target: CD200R (Mus musculus) (UniProt Q9ES57); conditions: cited from earlier work; remark: listed apart in the source
[5] = biological target: T1, mouse CD200RLa (residues 1-237) CD4-Bio, triple mutant N63K, K66T, and L114F (mouse); assay: SPR
T1 chain: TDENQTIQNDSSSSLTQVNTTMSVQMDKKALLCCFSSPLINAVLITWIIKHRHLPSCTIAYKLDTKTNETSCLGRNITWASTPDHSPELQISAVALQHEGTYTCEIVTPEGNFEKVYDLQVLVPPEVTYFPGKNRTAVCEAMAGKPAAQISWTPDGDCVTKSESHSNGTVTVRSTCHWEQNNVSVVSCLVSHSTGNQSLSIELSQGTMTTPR

[6] = biological target: T2, mouse CD200RLa (residues 1-237) CD4-Bio chimeric protein, wild type (mouse); assay: SPR
T2 chain: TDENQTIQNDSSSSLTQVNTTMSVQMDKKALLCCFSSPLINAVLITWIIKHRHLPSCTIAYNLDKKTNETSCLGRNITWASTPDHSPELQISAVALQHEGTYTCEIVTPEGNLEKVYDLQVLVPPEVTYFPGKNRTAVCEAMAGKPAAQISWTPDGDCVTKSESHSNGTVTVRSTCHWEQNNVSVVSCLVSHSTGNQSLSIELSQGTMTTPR

[7] = biological target: T3, mouse CD200R (residues 1-232) CD4-Bio chimeric protein (mouse, UniProt Q9ES57 26-232); assay: SPR
T3 chain: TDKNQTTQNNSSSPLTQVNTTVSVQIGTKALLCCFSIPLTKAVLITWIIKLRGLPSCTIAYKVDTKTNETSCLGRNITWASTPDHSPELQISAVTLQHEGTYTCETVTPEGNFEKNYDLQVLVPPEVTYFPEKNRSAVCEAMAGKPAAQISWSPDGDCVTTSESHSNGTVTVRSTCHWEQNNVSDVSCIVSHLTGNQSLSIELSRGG

[8] = biological target: mouse CD200RLa (residues 1-237) CD4-Bio, double mutant N63K K66T (mouse); assay: SPR; BIAcore 3000, 25°C; CD200R and wild-type and mutant CD200RLa CD4-Bio held by OX68 on a CM5 chip; increasing concentrations of CD200 injected; KDs by nonlinear curve fitting
[9] = biological target: mouse CD200RLa (residues 1-237) CD4-Bio, mutant L114F (mouse, UniProt Q6XJV4 26-237, L114F); assay: as above; conditions: one partner purified

With “mouse CD200R extracellular region with C-terminal polyhistidine tag (receptor)” as the molecule, how does the percent of wild-type binding response [1] read?
Its percent of wild-type binding response is 150%.

And the Kd [2]?
Its Kd is 0.5 µM.

Which Kd [3] does the source give for CD200 (from UniProt O54901) here?
Its Kd is 4 µM.

For CD200 (from UniProt P41217), which Kd [4] is on record?
The Kd was 7 µM.

B1: mouse CD200 extracellular region with C-terminal polyhistidine tag (ligand, UniProt O54901 31-232, looked up)
chain: QVEVVTQDERKALHTTASLRCSLKTSQEPLIVTWQKKKAVSPENMVTYSKTHGVVIQPAYKDRINVTELGLWNSSITFWNTTLEDEGCYMCLFNTFGSQKVSGTACLTLYVQPIVHLHYNYFEDHLNITCSATARPAPAISWKGTGTGIENSTESHFHSNGTTSVTSILRVKDPKTQVGKEVICQVLYLGNVIDYKQSLDKG
modifications: N-linked sugars cut back to N-acetyl-glucosamine by Endoglycosidase Hf (crystallised form); NH2 terminus presumably cyclized glutamine (pyroglutamic acid)
notes: signal peptide in the construct; mouse CD200, extracellular region (two Ig-like domains), residues 1-232 of NP_034948; the range counts on the precursor; Protein in the flow-through of the concanavalin A column was crystallised; protein eluted from the column was used as the soluble ligand in SPR; also called soluble CD200; recombinant CD200
Which Kd [5] does the source give for B1 here?
The Kd was 1.1 µM and 0.9 µM.

And the Kd [6]?
Its Kd is greater than 40 µM.

What about the Kd [7] of the same molecule?
Its Kd is 0.6 µM.

What about the Kd [8] of the same molecule?
Its Kd is 18.4 µM.

And the Kd [9]?
Its Kd is 4.2 µM.
